For orientation: pKd means the Kd on a negative log10 scale, so that one unit is a factor of ten. Lower therefore signals a large Kd.

This passage reports Kd results from paper PMC11261467.

pKd: −log10 of the molar value.

Common to all, as to assay: SPR
(SPR reads the build-up and loss of mass on a sensor chip optically.)

Assay [1] deals with plasma-derived C4b (unfractionated) (human) (UniProt P0C0L4).
For assay [2], the target named is plasma-derived C3b (unfractionated) (human) (UniProt P01024).
The target of assay [3] is His-tagged CSL040/LHR-ABC (human) (UniProt P17927).

In the case of “LHR-A (soluble human CR1 truncation), untagged (from UniProt P17927 42-489) (domain or fragment)”, in assay [1], the pKd was 5.91.
On to “LHR-AA (soluble human CR1 variant with two tandem LHR-A domains), untagged (from UniProt P17927 42-489; P17927 42-489)”, for which, in assay [1], the pKd is 5.81.
For “LHR-AB (soluble human CR1 truncation), untagged (from UniProt P17927 42-939) (domain or fragment)”, the results for the pKd in assay [2] and in assay [1] were 6.52 and 6.28, respectively.
Turning to “LHR-B (soluble human CR1 truncation), untagged (from UniProt P17927 490-939) (domain or fragment)”, the pKd in assay [2] is 6.47; in assay [1], 5.72.
Turning to “LHR-BC (soluble human CR1 truncation), untagged (from UniProt P17927 490-1392) (domain or fragment)”, the pKd in assay [2] is 7.11; in assay [1] it was 6.24.
In the case of “plasma-derived C3b (unfractionated) (from UniProt P01024 749-1663; P01024 749-1663) (ligand)”, in assay [3], the pKd was 6.87.
Regarding “plasma-derived C3b dimer (purified by size-exclusion chromatography) (from UniProt P01024 749-1663; P01024 749-1663) (complex)”, the pKd in assay [3] is 8.42.
